The values below come from article PMC7565927.

A short description of data set [1]: anti-V5 Western blot of CHO conditioned media. Particulars: glycan lost; control: WT WIF1-V5-His. Background: A western blot detects proteins with antibodies after separation by electrophoresis.
Data set [2] is described as follows: anti-V5 Western blot of CHO cell lysates, GAPDH-normalised. To be noted: glycan lost; control: WT WIF1-V5-His.

B1: WIF1 (Wnt Inhibitory Factor 1): T255A (protein)
parent chain: MARRRAFPAFALRLWSILPCLLLLRADAGQPPEESLYLWIDAHQARVLIGFEEDILIVSEGKMAPFTHDFRKAQQRMPAIPVNIHSMNFTWQAAGQAEYFYEFLSLRSLDKGIMADPTVNVPLLGTVPHKASVVQVGFPCLGKQDGVAAFEVNVIVMNSEGNTILRTPQNAIFFKTCQQAECPGGCRNGGFCNERRVCECPDGFYGPHCEKALCIPRCMNGGLCVTPGFCICPPGFYGVNCDKANCSTTCFNGGTCFYPGKCICPPGLEGEQCELSKCPQPCRNGGKCIGKSKCKCPKGYQGDLCSKPVCEPGCGAHGTCHEPNKCQCREGWHGRHCNKRYGASLMHAPRPAGAGLERHTPSLKKAEDRRDPPESNYIW
For the protein B1, the “expression_or_secretion, percent_of_wt” value in data set [1] was “decreases, decrease of more than 50% vs 100”. The localisation_or_trafficking result in data set [2] is given as “increases”.

B2: WIF1 (Wnt Inhibitory Factor 1): T255/319A (protein)
parent chain: MARRRAFPAFALRLWSILPCLLLLRADAGQPPEESLYLWIDAHQARVLIGFEEDILIVSEGKMAPFTHDFRKAQQRMPAIPVNIHSMNFTWQAAGQAEYFYEFLSLRSLDKGIMADPTVNVPLLGTVPHKASVVQVGFPCLGKQDGVAAFEVNVIVMNSEGNTILRTPQNAIFFKTCQQAECPGGCRNGGFCNERRVCECPDGFYGPHCEKALCIPRCMNGGLCVTPGFCICPPGFYGVNCDKANCSTTCFNGGTCFYPGKCICPPGLEGEQCELSKCPQPCRNGGKCIGKSKCKCPKGYQGDLCSKPVCEPGCGAHGTCHEPNKCQCREGWHGRHCNKRYGASLMHAPRPAGAGLERHTPSLKKAEDRRDPPESNYIW
Take B2: the “expression_or_secretion, percent_of_wt” value in data set [1] is listed as “decreases, decrease of more than 50% vs 100”. Further, the localisation_or_trafficking result in data set [2] was “increases”.
